Measurements reported in patent US9176064B2, “Bisubstrate fluorescent probes for protein kinase CK2” (University of Tartu, priority 2012, dated 2015).
Where a SMILES comes first, the peptide text is derived from it. [ ]: non-standard residue; d: D form. The star is where a group is joined. X1 = O=C(CCCCCCCn1cnc2c(Br)c(Br)c(Br)c(Br)c21)*

Experiments:
Assay in all cases: Kinase panel residual activity
Assay type in all cases: biochemical
Conditions in all cases: compound at 1 micromolar
TGFBR1 = biological target: T1, TGFBR1 (Homo sapiens, UniProt P36897)
T1 sequence (P36897 34-503): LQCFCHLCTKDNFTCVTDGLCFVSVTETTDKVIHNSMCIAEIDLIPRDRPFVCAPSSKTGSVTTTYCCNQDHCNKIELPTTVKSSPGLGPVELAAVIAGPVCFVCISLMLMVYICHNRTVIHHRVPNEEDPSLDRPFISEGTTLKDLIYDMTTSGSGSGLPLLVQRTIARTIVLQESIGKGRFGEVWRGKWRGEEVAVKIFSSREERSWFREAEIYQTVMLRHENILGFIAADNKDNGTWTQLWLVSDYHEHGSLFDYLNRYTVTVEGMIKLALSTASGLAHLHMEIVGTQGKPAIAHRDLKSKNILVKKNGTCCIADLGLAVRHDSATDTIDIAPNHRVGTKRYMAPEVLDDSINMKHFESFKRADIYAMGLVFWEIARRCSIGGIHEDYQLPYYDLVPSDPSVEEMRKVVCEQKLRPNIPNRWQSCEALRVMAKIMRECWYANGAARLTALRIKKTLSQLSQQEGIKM

PKCa = PKCa (Homo sapiens, UniProt P17252)
IRR = IRR (Homo sapiens, UniProt P14616)
Aurora A = biological target: T2, Aurora A (Homo sapiens, UniProt O14965)
T2 sequence (O14965 1-403): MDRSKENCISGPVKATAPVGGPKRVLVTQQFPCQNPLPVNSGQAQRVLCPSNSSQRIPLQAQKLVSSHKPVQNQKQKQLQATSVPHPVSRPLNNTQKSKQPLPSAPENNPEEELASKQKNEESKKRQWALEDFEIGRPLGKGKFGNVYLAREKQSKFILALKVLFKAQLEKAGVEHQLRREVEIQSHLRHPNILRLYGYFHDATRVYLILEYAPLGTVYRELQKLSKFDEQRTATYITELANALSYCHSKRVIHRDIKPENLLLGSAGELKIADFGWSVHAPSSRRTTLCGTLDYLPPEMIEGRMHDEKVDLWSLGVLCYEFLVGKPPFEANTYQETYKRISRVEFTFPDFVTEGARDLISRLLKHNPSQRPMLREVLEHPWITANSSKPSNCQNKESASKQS

PKD1 = biological target: T3, PKD1 (Homo sapiens, UniProt Q15139)
T3 sequence (Q15139 1-912): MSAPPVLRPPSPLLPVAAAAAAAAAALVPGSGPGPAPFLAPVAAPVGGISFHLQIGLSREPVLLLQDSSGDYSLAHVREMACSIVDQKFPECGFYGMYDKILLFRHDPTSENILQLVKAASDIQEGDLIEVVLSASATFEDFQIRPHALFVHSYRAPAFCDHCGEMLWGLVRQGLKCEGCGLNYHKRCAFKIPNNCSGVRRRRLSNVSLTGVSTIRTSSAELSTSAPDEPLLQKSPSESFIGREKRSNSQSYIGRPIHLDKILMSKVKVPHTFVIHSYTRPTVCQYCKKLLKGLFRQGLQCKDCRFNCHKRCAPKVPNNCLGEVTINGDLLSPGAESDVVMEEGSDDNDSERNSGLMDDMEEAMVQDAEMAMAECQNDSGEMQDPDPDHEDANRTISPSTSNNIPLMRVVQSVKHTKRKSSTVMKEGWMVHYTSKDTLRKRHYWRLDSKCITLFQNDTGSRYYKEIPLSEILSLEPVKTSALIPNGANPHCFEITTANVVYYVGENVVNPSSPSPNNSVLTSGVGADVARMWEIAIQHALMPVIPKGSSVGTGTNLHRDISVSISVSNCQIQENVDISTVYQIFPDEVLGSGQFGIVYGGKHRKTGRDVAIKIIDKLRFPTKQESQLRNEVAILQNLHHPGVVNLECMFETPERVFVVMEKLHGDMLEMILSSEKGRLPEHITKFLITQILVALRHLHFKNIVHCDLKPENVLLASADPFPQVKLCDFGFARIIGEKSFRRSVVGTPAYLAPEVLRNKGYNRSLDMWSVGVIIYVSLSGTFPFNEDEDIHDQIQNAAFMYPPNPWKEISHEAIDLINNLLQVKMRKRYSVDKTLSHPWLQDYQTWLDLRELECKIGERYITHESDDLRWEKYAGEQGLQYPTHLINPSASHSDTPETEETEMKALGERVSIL

MAP4K3 = biological target: T4, MAP4K3 (Homo sapiens, UniProt Q8IVH8)
T4 sequence (Q8IVH8 1-894): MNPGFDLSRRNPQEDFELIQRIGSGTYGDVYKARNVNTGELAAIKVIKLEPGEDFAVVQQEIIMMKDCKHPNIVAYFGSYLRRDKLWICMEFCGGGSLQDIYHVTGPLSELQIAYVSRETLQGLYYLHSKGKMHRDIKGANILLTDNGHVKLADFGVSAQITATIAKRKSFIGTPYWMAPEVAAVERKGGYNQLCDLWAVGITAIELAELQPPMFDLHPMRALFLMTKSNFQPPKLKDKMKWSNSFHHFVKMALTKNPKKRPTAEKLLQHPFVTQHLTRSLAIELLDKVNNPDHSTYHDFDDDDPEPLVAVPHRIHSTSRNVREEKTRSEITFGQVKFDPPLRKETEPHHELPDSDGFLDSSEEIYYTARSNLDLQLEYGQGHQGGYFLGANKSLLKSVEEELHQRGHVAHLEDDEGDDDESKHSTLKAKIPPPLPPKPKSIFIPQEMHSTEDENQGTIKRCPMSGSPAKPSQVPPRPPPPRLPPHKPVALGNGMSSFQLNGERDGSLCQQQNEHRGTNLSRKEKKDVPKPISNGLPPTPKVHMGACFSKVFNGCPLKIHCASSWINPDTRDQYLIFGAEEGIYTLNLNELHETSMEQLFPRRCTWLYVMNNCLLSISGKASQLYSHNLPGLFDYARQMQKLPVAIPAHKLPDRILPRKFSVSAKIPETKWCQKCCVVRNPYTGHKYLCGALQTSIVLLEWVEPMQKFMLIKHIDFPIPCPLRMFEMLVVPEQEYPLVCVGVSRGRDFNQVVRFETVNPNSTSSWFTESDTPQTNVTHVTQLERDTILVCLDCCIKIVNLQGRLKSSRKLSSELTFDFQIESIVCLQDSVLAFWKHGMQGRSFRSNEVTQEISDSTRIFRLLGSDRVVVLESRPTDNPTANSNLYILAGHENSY

MAPKAP-K2 = MAPKAP-K2 (Homo sapiens, UniProt P49137)
Lck = Lck (Homo sapiens, UniProt P06239)
MNK2 = MNK2 (Homo sapiens, UniProt Q9HBH9)
Sequence of MNK2 (Q9HBH9 whole entry, species assumed): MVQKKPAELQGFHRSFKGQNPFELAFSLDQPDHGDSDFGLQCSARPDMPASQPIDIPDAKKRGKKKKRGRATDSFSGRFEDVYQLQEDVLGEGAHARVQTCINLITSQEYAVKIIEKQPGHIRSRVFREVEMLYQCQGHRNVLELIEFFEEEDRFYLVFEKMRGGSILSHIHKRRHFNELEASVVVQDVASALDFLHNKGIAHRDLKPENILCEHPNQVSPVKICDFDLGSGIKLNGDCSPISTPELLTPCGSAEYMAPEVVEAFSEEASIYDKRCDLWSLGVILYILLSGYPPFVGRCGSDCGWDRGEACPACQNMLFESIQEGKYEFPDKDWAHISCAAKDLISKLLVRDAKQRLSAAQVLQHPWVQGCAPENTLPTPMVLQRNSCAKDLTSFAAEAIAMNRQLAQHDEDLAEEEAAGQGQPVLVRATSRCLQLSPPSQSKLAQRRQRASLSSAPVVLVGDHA

Sequence of Lck (P06239 whole entry, species assumed): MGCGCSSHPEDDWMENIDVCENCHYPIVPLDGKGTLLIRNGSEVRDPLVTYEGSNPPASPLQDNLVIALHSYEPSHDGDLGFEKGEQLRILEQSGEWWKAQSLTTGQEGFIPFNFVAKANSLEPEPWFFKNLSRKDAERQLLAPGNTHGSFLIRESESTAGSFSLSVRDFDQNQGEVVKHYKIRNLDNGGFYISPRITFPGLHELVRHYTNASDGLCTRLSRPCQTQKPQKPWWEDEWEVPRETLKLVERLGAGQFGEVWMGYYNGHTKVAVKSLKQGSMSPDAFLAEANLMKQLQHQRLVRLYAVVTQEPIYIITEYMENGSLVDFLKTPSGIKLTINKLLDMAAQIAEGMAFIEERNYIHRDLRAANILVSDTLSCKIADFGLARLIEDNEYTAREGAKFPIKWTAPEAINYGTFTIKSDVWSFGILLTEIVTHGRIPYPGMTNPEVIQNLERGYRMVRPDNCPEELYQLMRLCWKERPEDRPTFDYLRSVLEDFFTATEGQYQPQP
Sequence of IRR (P14616 27-1297, species assumed): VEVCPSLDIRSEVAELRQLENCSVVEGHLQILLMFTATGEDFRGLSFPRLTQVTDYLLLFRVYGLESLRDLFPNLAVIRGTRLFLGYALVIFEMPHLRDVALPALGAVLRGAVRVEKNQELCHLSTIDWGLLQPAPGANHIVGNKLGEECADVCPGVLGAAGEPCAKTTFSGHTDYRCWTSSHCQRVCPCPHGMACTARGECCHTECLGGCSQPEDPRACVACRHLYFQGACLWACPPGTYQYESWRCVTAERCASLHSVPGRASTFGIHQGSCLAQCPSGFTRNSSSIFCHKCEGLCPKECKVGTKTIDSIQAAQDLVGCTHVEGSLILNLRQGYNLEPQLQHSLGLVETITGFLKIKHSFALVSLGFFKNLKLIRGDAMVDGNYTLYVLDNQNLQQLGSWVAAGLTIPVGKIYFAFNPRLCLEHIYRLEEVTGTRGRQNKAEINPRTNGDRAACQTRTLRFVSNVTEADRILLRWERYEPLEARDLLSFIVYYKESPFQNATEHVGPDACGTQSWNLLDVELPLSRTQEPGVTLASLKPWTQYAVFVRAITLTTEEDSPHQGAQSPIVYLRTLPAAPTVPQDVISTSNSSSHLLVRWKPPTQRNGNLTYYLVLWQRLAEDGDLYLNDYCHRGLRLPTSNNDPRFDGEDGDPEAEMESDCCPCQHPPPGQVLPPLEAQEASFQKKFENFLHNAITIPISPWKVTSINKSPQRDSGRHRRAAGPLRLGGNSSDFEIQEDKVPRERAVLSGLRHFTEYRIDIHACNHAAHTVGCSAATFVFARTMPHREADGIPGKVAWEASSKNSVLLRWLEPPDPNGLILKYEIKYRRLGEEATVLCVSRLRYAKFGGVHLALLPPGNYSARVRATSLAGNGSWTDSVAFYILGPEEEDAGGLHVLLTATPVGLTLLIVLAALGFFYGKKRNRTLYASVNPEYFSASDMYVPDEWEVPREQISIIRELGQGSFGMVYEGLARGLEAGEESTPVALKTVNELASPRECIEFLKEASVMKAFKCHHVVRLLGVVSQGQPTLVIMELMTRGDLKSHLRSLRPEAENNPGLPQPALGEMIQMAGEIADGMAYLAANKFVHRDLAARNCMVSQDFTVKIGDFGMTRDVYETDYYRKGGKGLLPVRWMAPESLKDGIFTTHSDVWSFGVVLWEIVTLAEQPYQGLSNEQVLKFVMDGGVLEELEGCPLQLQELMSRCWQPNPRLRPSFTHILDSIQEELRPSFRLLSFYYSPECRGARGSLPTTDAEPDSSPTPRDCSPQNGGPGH
Sequence of MAPKAP-K2 (P49137 whole entry, species assumed): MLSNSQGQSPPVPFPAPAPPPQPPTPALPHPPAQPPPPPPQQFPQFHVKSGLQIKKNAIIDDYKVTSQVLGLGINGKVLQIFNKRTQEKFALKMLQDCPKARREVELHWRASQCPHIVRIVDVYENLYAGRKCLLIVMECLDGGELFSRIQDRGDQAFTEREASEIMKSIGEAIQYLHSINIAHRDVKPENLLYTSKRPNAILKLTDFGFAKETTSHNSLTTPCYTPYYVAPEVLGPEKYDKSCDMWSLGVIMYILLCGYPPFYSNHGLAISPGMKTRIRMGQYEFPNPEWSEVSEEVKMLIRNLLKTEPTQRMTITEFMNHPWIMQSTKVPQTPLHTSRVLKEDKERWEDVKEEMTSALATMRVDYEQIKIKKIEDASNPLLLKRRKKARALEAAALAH

## NCCCC[C@H](NC(=O)[C@H](CC(=O)O)NC(=O)[C@H](CC(=O)O)NC(=O)[C@H](CC(=O)O)NC(=O)[C@H](CC(=O)O)NC(=O)[C@H](CC(=O)O)NC(=O)[C@@H](CC(=O)O)NC(=O)CCCCCCCn1cnc2c(Br)c(Br)c(Br)c(Br)c21)C(=O)O [TBBI-OcA-(D-Asp)-(L-Asp)5-(L-Lys)-OH] (X1-[dD]DDDDDK-OH)
TGFBR1
  remaining activity at 1 µM: 98%
PKCa
  remaining activity at 1 µM: 94%
IRR
  remaining activity at 1 µM: 55%
Aurora A
  remaining activity at 1 µM: 118%
PKD1
  remaining activity at 1 µM: 72%
MAP4K3
  remaining activity at 1 µM: 86%
MAPKAP-K2
  remaining activity at 1 µM: 89%
Lck
  remaining activity at 1 µM: 62%
MNK2
  remaining activity at 1 µM: 89%
